{
  "source": "paper PMC5309860",
  "about": "(2017)",
  "parents": {"B1": {"name": "His-β-arrestin-1-WT [not stated] / GST-PLCγ-SH3 [human] (parent complex)", "chain 1": "MGDKGTRVFKKASPNGKLTVYLGKRDFVDHIDLVDPVDGVVLVDPEYLKERRVYVTLTCAFRYGREDLDVLGLTFRKDLFVANVQSFPPAPEDKKPLTRLQERLIKKLGEHAYPFTFEIPPNLPCSVTLQPGPEDTGKACGVDYEVKAFCAENLEEKIHKRNSVRLVIRKVQYAPERPGPQPTAETTRQFLMSDKPLHLEASLDKEIYYHGEPISVNVHVTNNTNKTVKKIKISVRQYADICLFNTAQYKCPVAMEEADDTVAPSSTFCKVYTLTPFLANNREKRGLALDGKLKHEDTNLASSTLLREGANREILGIIVSYKVKVKLVVSRGGLLGDLASSDVAVELPFTLMHPKPKEEPPHREVPENETPVDTNLIELDTNDDDIVFEDFARQRLKGMKDDKEEEEDGTGSPQLNNR", "chain 2": "TFKCAVKALFDYKAQREDELTFIKSAIIQNVEKQEGGWWRGDYGGKKQLWFPSNYVEEMVN"}},
  "data": [
    {"variants_of": "B1", "test": "GST pull down assay (quantified western blot); 5 μM GST-PLCγ-SH3, 5 μM β-arrestin-1, with GRK6pp; parent: 2.5; read off a plot", "units": {"screen value": "fold"}, "values": [
      {"variant": "chain 1 MGDKGTRVFKKASPNGKLTVYLGKRDFVDHIDLVDPVDGVVLVDPEYLKERRVYVTLTCAFRYGREDLDVLGLTFRKDLFVANVQSFPPAPEDKKPLTRLQERLIKKLGEHAYPFTFEIPPNLPCSVTLQPGPEDTGKACGVDYEVKAFCAENLEEKIHKRNSVRLVIRKVQYAPERPGAQPTAETTRQFLMSDKPLHLEASLDKEIYYHGEPISVNVHVTNNTNKTVKKIKISVRQYADICLFNTAQYKCPVAMEEADDTVAPSSTFCKVYTLTPFLANNREKRGLALDGKLKHEDTNLASSTLLREGANREILGIIVSYKVKVKLVVSRGGLLGDLASSDVAVELPFTLMHPKPKEEPPHREVPENETPVDTNLIELDTNDDDIVFEDFARQRLKGMKDDKEEEEDGTGSPQLNNR", "note": "[chain 1 P180A]", "screen value": "~2.6"},
      {"variant": "chain 1 MGDKGTRVFKKASPNGKLTVYLGKRDFVDHIDLVDPVDGVVLVDPEYLKERRVYVTLTCAFRYGREDLDVLGLTFRKDLFVANVQSFAAAAEDKKPLTRLQERLIKKLGEHAYPFTFEIPPNLPCSVTLQPGPEDTGKACGVDYEVKAFCAENLEEKIHKRNSVRLVIRKVQYAPERPGPQPTAETTRQFLMSDKPLHLEASLDKEIYYHGEPISVNVHVTNNTNKTVKKIKISVRQYADICLFNTAQYKCPVAMEEADDTVAPSSTFCKVYTLTPFLANNREKRGLALDGKLKHEDTNLASSTLLREGANREILGIIVSYKVKVKLVVSRGGLLGDLASSDVAVELPFTLMHPKPKEEPPHREVPENETPVDTNLIELDTNDDDIVFEDFARQRLKGMKDDKEEEEDGTGSPQLNNR", "note": "[chain 1 P88A, chain 1 P89A, chain 1 P91A]", "screen value": "~1.1"},
      {"variant": "chain 1 MGDKGTRVFKKASPNGKLTVYLGKRDFVDHIDLVDPVDGVVLVDPEYLKERRVYVTLTCAFRYGREDLDVLGLTFRKDLFVANVQSFPPAPEDKKPLTRLQERLIKKLGEHAYPFTFEIPANLPCSVTLQPGPEDTGKACGVDYEVKAFCAENLEEKIHKRNSVRLVIRKVQYAPERPGPQPTAETTRQFLMSDKPLHLEASLDKEIYYHGEPISVNVHVTNNTNKTVKKIKISVRQYADICLFNTAQYKCPVAMEEADDTVAPSSTFCKVYTLTPFLANNREKRGLALDGKLKHEDTNLASSTLLREGANREILGIIVSYKVKVKLVVSRGGLLGDLASSDVAVELPFTLMHPKPKEEPPHREVPENETPVDTNLIELDTNDDDIVFEDFARQRLKGMKDDKEEEEDGTGSPQLNNR", "note": "[chain 1 P121A]", "screen value": "~2.7"}
    ]},
    {"variants_of": "B1", "test": "GST pull down assay (quantified western blot); 5 μM GST-PLCγ-SH3, 5 μM β-arrestin-1, without GRK6pp; parent: 1; read off a plot", "units": {"screen value": "fold"}, "values": [
      {"variant": "chain 1 MGDKGTRVFKKASPNGKLTVYLGKRDFVDHIDLVDPVDGVVLVDPEYLKERRVYVTLTCAFRYGREDLDVLGLTFRKDLFVANVQSFPPAPEDKKPLTRLQERLIKKLGEHAYPFTFEIPPNLPCSVTLQPGPEDTGKACGVDYEVKAFCAENLEEKIHKRNSVRLVIRKVQYAPERPGAQPTAETTRQFLMSDKPLHLEASLDKEIYYHGEPISVNVHVTNNTNKTVKKIKISVRQYADICLFNTAQYKCPVAMEEADDTVAPSSTFCKVYTLTPFLANNREKRGLALDGKLKHEDTNLASSTLLREGANREILGIIVSYKVKVKLVVSRGGLLGDLASSDVAVELPFTLMHPKPKEEPPHREVPENETPVDTNLIELDTNDDDIVFEDFARQRLKGMKDDKEEEEDGTGSPQLNNR", "note": "[chain 1 P180A]", "screen value": "~1.2"},
      {"variant": "chain 1 MGDKGTRVFKKASPNGKLTVYLGKRDFVDHIDLVDPVDGVVLVDPEYLKERRVYVTLTCAFRYGREDLDVLGLTFRKDLFVANVQSFAAAAEDKKPLTRLQERLIKKLGEHAYPFTFEIPPNLPCSVTLQPGPEDTGKACGVDYEVKAFCAENLEEKIHKRNSVRLVIRKVQYAPERPGPQPTAETTRQFLMSDKPLHLEASLDKEIYYHGEPISVNVHVTNNTNKTVKKIKISVRQYADICLFNTAQYKCPVAMEEADDTVAPSSTFCKVYTLTPFLANNREKRGLALDGKLKHEDTNLASSTLLREGANREILGIIVSYKVKVKLVVSRGGLLGDLASSDVAVELPFTLMHPKPKEEPPHREVPENETPVDTNLIELDTNDDDIVFEDFARQRLKGMKDDKEEEEDGTGSPQLNNR", "note": "[chain 1 P88A, chain 1 P89A, chain 1 P91A]", "screen value": "~1.1"},
      {"variant": "chain 1 MGDKGTRVFKKASPNGKLTVYLGKRDFVDHIDLVDPVDGVVLVDPEYLKERRVYVTLTCAFRYGREDLDVLGLTFRKDLFVANVQSFPPAPEDKKPLTRLQERLIKKLGEHAYPFTFEIPANLPCSVTLQPGPEDTGKACGVDYEVKAFCAENLEEKIHKRNSVRLVIRKVQYAPERPGPQPTAETTRQFLMSDKPLHLEASLDKEIYYHGEPISVNVHVTNNTNKTVKKIKISVRQYADICLFNTAQYKCPVAMEEADDTVAPSSTFCKVYTLTPFLANNREKRGLALDGKLKHEDTNLASSTLLREGANREILGIIVSYKVKVKLVVSRGGLLGDLASSDVAVELPFTLMHPKPKEEPPHREVPENETPVDTNLIELDTNDDDIVFEDFARQRLKGMKDDKEEEEDGTGSPQLNNR", "note": "[chain 1 P121A]", "screen value": "~1.1"}
    ]}
  ]
}
